The target of this assay is T1, GST-IFT54 (mouse, UniProt Q149C2 1-625).
T1 sequence (looked up): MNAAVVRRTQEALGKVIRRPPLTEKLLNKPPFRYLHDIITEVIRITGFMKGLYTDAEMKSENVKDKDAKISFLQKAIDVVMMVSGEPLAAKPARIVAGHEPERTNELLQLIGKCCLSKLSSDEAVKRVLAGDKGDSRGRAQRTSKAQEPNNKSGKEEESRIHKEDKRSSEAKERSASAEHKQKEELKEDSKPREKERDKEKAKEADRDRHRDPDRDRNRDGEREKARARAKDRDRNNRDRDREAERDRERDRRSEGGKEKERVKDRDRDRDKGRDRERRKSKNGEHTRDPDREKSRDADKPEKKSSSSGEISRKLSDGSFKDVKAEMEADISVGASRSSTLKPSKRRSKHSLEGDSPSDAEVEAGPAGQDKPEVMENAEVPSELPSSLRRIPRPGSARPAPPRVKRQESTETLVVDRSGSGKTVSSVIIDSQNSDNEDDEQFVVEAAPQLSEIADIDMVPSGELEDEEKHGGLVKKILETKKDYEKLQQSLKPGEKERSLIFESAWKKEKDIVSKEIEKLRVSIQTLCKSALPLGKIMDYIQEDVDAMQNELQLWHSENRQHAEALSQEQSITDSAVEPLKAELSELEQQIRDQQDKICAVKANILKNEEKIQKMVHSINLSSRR
Description: pull-down.

The record followed here is PMC3069017 (Molecular Biology of the Cell, 2011).

B1: purified, untagged IFT20 (natural protein, mouse, UniProt Q61025-1 1-132, looked up)
chain: MAKDILGEAGLHFDELNKLRVLDPEVTQQTVELKEECKDFVDKIGQFQKIVGGLIELVDQLAKEAENEKMKAIGARNLLKSIAKQREAQQQQLQALIAEKKTQLERYRVEYEALCKVEAEQNEFIDQFIFQK
For B1, the binding result is “binds”.
